Laboratory results as given in patent publication US20190248924A1.
pEC50: −log10 of the molar value.

Biological target: human CTLA-4Ig (R&D Systems) (human) (UniProt P16410)
Assay: ELISA, human CTLA-4Ig immobilized on the plate, detection with anti-human Fab-HRP, OD450; unit taken from the x axis; fit value of a flat control curve, far beyond the range tested

Chain of UniProt P16410 (P16410 37-162): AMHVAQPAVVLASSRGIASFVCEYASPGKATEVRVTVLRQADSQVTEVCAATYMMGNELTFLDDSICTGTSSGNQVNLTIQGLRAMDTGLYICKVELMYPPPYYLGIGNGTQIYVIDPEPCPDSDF

**Q.** How did the pEC50 turn out when hIgG Control (antibody) was run?
**A.** The pEC50 was 4.29.
